Measured values reported in the supplement of paper PMC10567573.

B1: LPCAT4 (parent)
chain: HDPLYGKLFSTYLRPPHTSRGTSQ
B2: TRIM55 (parent)
chain: FQASNPYLPTRGGTTMASGGRFRC

Variants of: B1
Assay: protein stability index of a GFP-peptide fusion (GPS, HEK-293T) (PSI 1-6); higher = more stable
Conditions: c terminus: a fixed tail appended
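Note: lentivirally expressed fusions sorted by FACS into six bins by GFP to DsRed ratio, PSI derived from sequencing read proportions per bin multiplied by bin number.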

Q: Which protein stability index does the source give for HDPLYGKLFSTYLRPPHTSRGTGQ [S23G] here?
A: 2.18

Q: Which protein stability index does the source give for HDPLYGKLFSTYLRPPHTSRGTHQ [S23H] here?
A: 2.73

Q: For HDPLYGKLFSTYLRPPHTSRGTIQ [S23I], which protein stability index is on record?
A: 2.3

Q: Which protein stability index does the source give for HDPLYGKLFSTYLRPPHTSRGTKQ [S23K] here?
A: 2.51

Q: For HDPLYGKLFSTYLRPPHTSRGTLQ [S23L], which protein stability index is on record?
A: 2.39

Q: Which protein stability index does the source give for HDPLYGKLFSTYLRPPHTSRGTMQ [S23M] here?
A: 2.34

Q: Which protein stability index does the source give for HDPLYGKLFSTYLRPPHTSRGTNQ [S23N] here?
A: 2.77

Q: Which protein stability index does the source give for HDPLYGKLFSTYLRPPHTSRGTPQ [S23P] here?
A: 2.87

Q: Which protein stability index does the source give for HDPLYGKLFSTYLRPPHTSRGTQQ [S23Q] here?
A: 2.52

Q: For HDPLYGKLFSTYLRPPHTSRGTRQ [S23R], which protein stability index is on record?
A: 2.45

Q: For HDPLYGKLFSTYLRPPHTSRGTTQ [S23T], which protein stability index is on record?
A: 2.66

Q: For HDPLYGKLFSTYLRPPHTSRGTVQ [S23V], which protein stability index is on record?
A: 2.49

Q: With HDPLYGKLFSTYLRPPHTSRGTWQ [S23W] as the variant, how does the protein stability index read?
A: 2.4

Q: Which protein stability index does the source give for HDPLYGKLFSTYLRPPHTSRGTYQ [S23Y] here?
A: 2.19

Q: For HDPLYGKLFSTYLRPPHTSRGTSA [Q24A], which protein stability index is on record?
A: 2.28

Q: Which protein stability index does the source give for HDPLYGKLFSTYLRPPHTSRGTSC [Q24C] here?
A: 2.64

Q: With HDPLYGKLFSTYLRPPHTSRGTSD [Q24D] as the variant, how does the protein stability index read?
A: 3.28

Q: For HDPLYGKLFSTYLRPPHTSRGTSE [Q24E], which protein stability index is on record?
A: 3.01

Q: Which protein stability index does the source give for HDPLYGKLFSTYLRPPHTSRGTSF [Q24F] here?
A: 2.28

Q: With HDPLYGKLFSTYLRPPHTSRGTSG [Q24G] as the variant, how does the protein stability index read?
A: 2.36

Q: For HDPLYGKLFSTYLRPPHTSRGTSH [Q24H], which protein stability index is on record?
A: 2.3

Q: For HDPLYGKLFSTYLRPPHTSRGTSI [Q24I], which protein stability index is on record?
A: 2.11

Q: Which protein stability index does the source give for HDPLYGKLFSTYLRPPHTSRGTSK [Q24K] here?
A: 2.56

Q: Which protein stability index does the source give for HDPLYGKLFSTYLRPPHTSRGTSL [Q24L] here?
A: 2.29

Q: Which protein stability index does the source give for HDPLYGKLFSTYLRPPHTSRGTSM [Q24M] here?
A: 2.45

Q: Which protein stability index does the source give for HDPLYGKLFSTYLRPPHTSRGTSN [Q24N] here?
A: 2.78

Q: For HDPLYGKLFSTYLRPPHTSRGTSP [Q24P], which protein stability index is on record?
A: 2.43

Q: With HDPLYGKLFSTYLRPPHTSRGTSR [Q24R] as the variant, how does the protein stability index read?
A: 2.39

Q: With HDPLYGKLFSTYLRPPHTSRGTSS [Q24S] as the variant, how does the protein stability index read?
A: 2.72

Q: With HDPLYGKLFSTYLRPPHTSRGTST [Q24T] as the variant, how does the protein stability index read?
A: 2.53

Q: Which protein stability index does the source give for HDPLYGKLFSTYLRPPHTSRGTSV [Q24V] here?
A: 2.42

Q: For HDPLYGKLFSTYLRPPHTSRGTSW [Q24W], which protein stability index is on record?
A: 2.13

Q: Which protein stability index does the source give for HDPLYGKLFSTYLRPPHTSRGTSY [Q24Y] here?
A: 2.07

Variants of: B2
Assay: as above
Conditions: c terminus: a fixed tail appended

Q: Which protein stability index does the source give for AQASNPYLPTRGGTTMASGGRFRC [F1A] here?
A: 3.51

Q: With CQASNPYLPTRGGTTMASGGRFRC [F1C] as the variant, how does the protein stability index read?
A: 2.2

Q: With DQASNPYLPTRGGTTMASGGRFRC [F1D] as the variant, how does the protein stability index read?
A: 3.43

Q: With EQASNPYLPTRGGTTMASGGRFRC [F1E] as the variant, how does the protein stability index read?
A: 3.59

Q: Which protein stability index does the source give for GQASNPYLPTRGGTTMASGGRFRC [F1G] here?
A: 3.91

Q: With HQASNPYLPTRGGTTMASGGRFRC [F1H] as the variant, how does the protein stability index read?
A: 3.24

Q: With IQASNPYLPTRGGTTMASGGRFRC [F1I] as the variant, how does the protein stability index read?
A: 3.13

Q: For KQASNPYLPTRGGTTMASGGRFRC [F1K], which protein stability index is on record?
A: 3.41

Q: With LQASNPYLPTRGGTTMASGGRFRC [F1L] as the variant, how does the protein stability index read?
A: 3.37

Q: With MQASNPYLPTRGGTTMASGGRFRC [F1M] as the variant, how does the protein stability index read?
A: 3.4

Q: With NQASNPYLPTRGGTTMASGGRFRC [F1N] as the variant, how does the protein stability index read?
A: 3.55

Q: Which protein stability index does the source give for PQASNPYLPTRGGTTMASGGRFRC [F1P] here?
A: 3.91

Q: Which protein stability index does the source give for QQASNPYLPTRGGTTMASGGRFRC [F1Q] here?
A: 3.91

Q: For RQASNPYLPTRGGTTMASGGRFRC [F1R], which protein stability index is on record?
A: 3.57

Q: With SQASNPYLPTRGGTTMASGGRFRC [F1S] as the variant, how does the protein stability index read?
A: 3.52

Q: With TQASNPYLPTRGGTTMASGGRFRC [F1T] as the variant, how does the protein stability index read?
A: 3.49

Q: Which protein stability index does the source give for VQASNPYLPTRGGTTMASGGRFRC [F1V] here?
A: 3.16

Q: With WQASNPYLPTRGGTTMASGGRFRC [F1W] as the variant, how does the protein stability index read?
A: 2.58

Q: For YQASNPYLPTRGGTTMASGGRFRC [F1Y], which protein stability index is on record?
A: 2.06

Q: For FAASNPYLPTRGGTTMASGGRFRC [Q2A], which protein stability index is on record?
A: 2.17

Q: Which protein stability index does the source give for FCASNPYLPTRGGTTMASGGRFRC [Q2C] here?
A: 1.44

Q: Which protein stability index does the source give for FDASNPYLPTRGGTTMASGGRFRC [Q2D] here?
A: 3.43

Q: With FEASNPYLPTRGGTTMASGGRFRC [Q2E] as the variant, how does the protein stability index read?
A: 3.38

Q: With FFASNPYLPTRGGTTMASGGRFRC [Q2F] as the variant, how does the protein stability index read?
A: 2.03

Q: With FGASNPYLPTRGGTTMASGGRFRC [Q2G] as the variant, how does the protein stability index read?
A: 1.9

Q: With FHASNPYLPTRGGTTMASGGRFRC [Q2H] as the variant, how does the protein stability index read?
A: 2.99

Q: For FIASNPYLPTRGGTTMASGGRFRC [Q2I], which protein stability index is on record?
A: 2.22

Q: For FKASNPYLPTRGGTTMASGGRFRC [Q2K], which protein stability index is on record?
A: 2.85

Q: With FLASNPYLPTRGGTTMASGGRFRC [Q2L] as the variant, how does the protein stability index read?
A: 1.94

Q: Which protein stability index does the source give for FMASNPYLPTRGGTTMASGGRFRC [Q2M] here?
A: 2

Q: For FNASNPYLPTRGGTTMASGGRFRC [Q2N], which protein stability index is on record?
A: 2.68

Q: For FPASNPYLPTRGGTTMASGGRFRC [Q2P], which protein stability index is on record?
A: 1.61

Q: For FRASNPYLPTRGGTTMASGGRFRC [Q2R], which protein stability index is on record?
A: 2.68

Q: With FSASNPYLPTRGGTTMASGGRFRC [Q2S] as the variant, how does the protein stability index read?
A: 2.13

Q: With FTASNPYLPTRGGTTMASGGRFRC [Q2T] as the variant, how does the protein stability index read?
A: 1.68

Q: Which protein stability index does the source give for FVASNPYLPTRGGTTMASGGRFRC [Q2V] here?
A: 1.74

Q: For FWASNPYLPTRGGTTMASGGRFRC [Q2W], which protein stability index is on record?
A: 2.3

Q: Which protein stability index does the source give for FYASNPYLPTRGGTTMASGGRFRC [Q2Y] here?
A: 2.2

Q: For FQCSNPYLPTRGGTTMASGGRFRC [A3C], which protein stability index is on record?
A: 1.32

Q: With FQDSNPYLPTRGGTTMASGGRFRC [A3D] as the variant, how does the protein stability index read?
A: 2.71

Q: For FQESNPYLPTRGGTTMASGGRFRC [A3E], which protein stability index is on record?
A: 2.55

Q: Which protein stability index does the source give for FQFSNPYLPTRGGTTMASGGRFRC [A3F] here?
A: 2.69

Q: For FQGSNPYLPTRGGTTMASGGRFRC [A3G], which protein stability index is on record?
A: 1.95

Q: With FQHSNPYLPTRGGTTMASGGRFRC [A3H] as the variant, how does the protein stability index read?
A: 1.24

Q: Which protein stability index does the source give for FQISNPYLPTRGGTTMASGGRFRC [A3I] here?
A: 1.76

Q: With FQKSNPYLPTRGGTTMASGGRFRC [A3K] as the variant, how does the protein stability index read?
A: 1.69

Q: Which protein stability index does the source give for FQLSNPYLPTRGGTTMASGGRFRC [A3L] here?
A: 1.8

Q: With FQMSNPYLPTRGGTTMASGGRFRC [A3M] as the variant, how does the protein stability index read?
A: 1.83

Q: With FQNSNPYLPTRGGTTMASGGRFRC [A3N] as the variant, how does the protein stability index read?
A: 2.18

Q: For FQPSNPYLPTRGGTTMASGGRFRC [A3P], which protein stability index is on record?
A: 2.02

Q: For FQQSNPYLPTRGGTTMASGGRFRC [A3Q], which protein stability index is on record?
A: 2.84

Q: Which protein stability index does the source give for FQRSNPYLPTRGGTTMASGGRFRC [A3R] here?
A: 2.46

Q: For FQSSNPYLPTRGGTTMASGGRFRC [A3S], which protein stability index is on record?
A: 2.27

Q: Which protein stability index does the source give for FQTSNPYLPTRGGTTMASGGRFRC [A3T] here?
A: 1.54

Q: With FQVSNPYLPTRGGTTMASGGRFRC [A3V] as the variant, how does the protein stability index read?
A: 2.28

Q: With FQWSNPYLPTRGGTTMASGGRFRC [A3W] as the variant, how does the protein stability index read?
A: 2.95

Q: For FQYSNPYLPTRGGTTMASGGRFRC [A3Y], which protein stability index is on record?
A: 1.95

Q: For FQAANPYLPTRGGTTMASGGRFRC [S4A], which protein stability index is on record?
A: 2.11

Q: For FQACNPYLPTRGGTTMASGGRFRC [S4C], which protein stability index is on record?
A: 2.64

Q: Which protein stability index does the source give for FQADNPYLPTRGGTTMASGGRFRC [S4D] here?
A: 1.24

Q: For FQAENPYLPTRGGTTMASGGRFRC [S4E], which protein stability index is on record?
A: 1.95
